Data published in article PMC11964602 (Bioactive Materials, 2025).
Where no end group is shown, it is not given here.

Target: SARS-CoV-2 M^pro (Severe acute respiratory syndrome coronavirus 2, UniProt P0DTD1)
Experiment: biochemical
Type: biochemical
Conditions: for M^pro inhibition (%): 100 µM

Compound	M^pro inhibition (%)	also measured
CC[C@H](C)[C@H](NC(=O)[C@H](CCC(=O)O)NC(=O)[C@H](C)NC(=O)[C@H](CCSC)NC(=O)[C@H](CC(=O)O)NC(=O)[C@@H]1CCCN1C(=O)[C@H](CCCCN)NC(=O)[C@H](CC(=O)O)NC(=O)[C@H](CO)NC(C)=O)C(=O)N[C@@H](CCC(=O)O)C(=O)N[C@@H](CCCCN)C(=O)N[C@@H](Cc1ccccc1)C(=O)N[C@@H](CC(=O)O)C(=O)N[C@@H](CCCCN)C(=O)N[C@@H](CO)C(=O)N[C@@H](CCCCN)C(=O)N[C@@H](CC(C)C)C(=O)N[C@@H](CCCCN)C(=O)N[C@@H](CCCCN)C(=O)N[C@H](C(=O)N[C@@H](CCC(=O)O)C(=O)N[C@H](C(=O)N[C@@H](CCC(N)=O)C(=O)N[C@@H](CCC(=O)O)C(=O)N[C@@H](CCCCN)C(=O)N[C@@H](CC(N)=O)C(=O)N1CCC[C@H]1C(=O)N[C@@H](CC(C)C)C(=O)N1CCC[C@H]1C(=O)N[C@@H](CO)C(=O)N[C@@H](CCCCN)C(=O)N[C@@H](CCC(=O)O)C(=O)N[C@H](C(=O)N[C@H](C(=O)N[C@@H](CCC(=O)O)C(=O)N[C@@H](CCC(N)=O)C(=O)N[C@@H](CCC(=O)O)C(=O)N[C@@H](CCCCN)C(=O)N[C@@H](CCC(N)=O)C(=O)N[C@@H](C)C(=O)NCC(=O)N[C@@H](CCC(=O)O)C(=O)N[C@@H](CO)C(=O)O)[C@@H](C)CC)[C@@H](C)O)[C@@H](C)O)[C@@H](C)O [Ac-Tβ4, Acetyl-thymosin β4]	–	inhibition at 100 µM (read-out: M^pro inhibition (%)): 7.09%; IC50 against SARS-CoV-2 M^pro (six inhibitor concentrations 100 μM–97.65 nM): no inhibition
Ac-SDKP	–	M^pro inhibition, in vitro screening of Ac-Tβ1-17 fragments (iterative N- and C-terminal fragments of Ac-Tβ1-17): less than 50%
Ac-Tβ4_1-11: peptide metabolite of Ac-Tβ4, amino acids 1-11 (Ac-SDKPDMAEIEK; UniProt P62328 2-12, looked up, fragment)	1.25%	–
Ac-Tβ4_1-15: peptide metabolite of Ac-Tβ4, amino acids 1-15 (Ac-SDKPDMAEIEKFDKS)	34.4%	–
Ac-Tβ4_17-43: peptide metabolite of Ac-Tβ4, amino acids 17-43 (LKKTETQEKNPLPSKETIEQEKQAGES; Thymosin beta-4; UniProt P62328 18-44, looked up, fragment)	25.16%	–
Ac-Tβ4_31-43: peptide metabolite of Ac-Tβ4, amino acids 31-43 (KETIEQEKQAGES; Thymosin beta-4; UniProt P62328 32-44, looked up, fragment)	1.88%	–
